The values below are quoted from earlier work in US9770419B2, “Methods and compositions of camel derived products” (priority 2012, dated 2017).

One data set relates to HCV (genotype 4a). The following applies: compared with human, bovine and sheep lactoferrin.
The subject of data set [1] is colon cancer cell line, HCT-116. The following applies: in vitro.

B1: Camel Lactoferrin: iron containing protein, molecular mass 76-80 kDa, 689 amino acids residues, isolated from camel milk (protein, UniProt Q9TUM0 20-708, looked up)
Lactotransferrin: ASKKSVRWCTTSPAESSKCAQWQRRMKKVRGPSVTCVKKTSRFECIQAISTEKADAVTLDGGLVYDAGLDPYKLRPIAAEVYGTENNPQTHYYAVAIAKKGTNFQLNQLQGLKSCHTGLGRSAGWNIPMGLLRPFLDWTGPPEPLQKAVAKFFSASCVPCVDGKEYPNLCQLCAGTGENKCACSSQEPYFGYSGAFKCLQDGAGDVAFVKDSTVFESLPAKADRDQYELLCPNNTRKPVDAFQECHLARVPSHAVVARSVNGKEDLIWKLLVKAQEKFGRGKPSGFQLFGSPAGQKDLLFKDSALGLLRISSKIDSGLYLGSNYITAIRGLRETAAEVELRRAQVVWCAVGSDEQLKCQEWSRQSNQSVVCATASTTEDCIALVLKGEADALSLDGGYIYIAGKCGLVPVLAESQQSPESSGLDCVHRPVKGYLAVAVVRKANDKITWNSLRGKKSCHTAVDRTAGWNIPMGLLSKNTDSCRFDEFLSQSCAPGSDPRSKLCALCAGNEEGQNKCVPNSSERYYGYTGAFRCLAENVGDVAFVKDVTVLDNTDGKNTEQWAKDLKLGDFELLCLNGTRKPVTEAESCHLAVAPNHAVVSRIDKVAHLEQVLLRQQAHFGRNGRDCPGKFCLFQSKTKNLLFNDNTECLAKLQGKTTYEEYLGPQYVTAIAKLRRCSTSPLLEACAFLMR
On to B1, for which, in the data set with DNA damage, the DNA damage entry is listed as “inhibit” and the antioxidant activities result is listed as “exhibits antioxidant activities”. The “inhibitory effect on HCV” value in the data set with HCV (genotype 4a) is “higher than human, bovine and sheep lactoferrin”. The “proliferation of HCT-116” value in data set [1] is reported as “inhibit the proliferation”.
